# Legend:
# [1] = diffusion-ordered NMR spectroscopy (DOSY); R5 in the presence of Pi, 25 °C; hydrodynamic radius by Stokes-Einstein, spherical model; monomer to trimer; details: other: diffusion-ordered NMR spectroscopy (DOSY)
# [2] = 1H-15N HSQC NMR (signal loss and chemical shift perturbation upon self-assembly); R5 in phosphate-buffered solution, 11.8 mM Pi, pH 6.5, 25 °C; compared with R5 without Pi; details: other: 1H-15N HSQC NMR (signal loss and chemical shift perturbation upon self-assembly)
# [3] = 1H-15N HSQC NMR (signal loss and chemical shift perturbation upon self-assembly); R5 in phosphate-buffered solution, 50 mM Pi, pH 6.5, 25 °C; compared with R5 without Pi; details: other: 1H-15N HSQC NMR (signal loss and chemical shift perturbation upon self-assembly)
substance,measurement,setting,value
R5 peptide,N with Pi,[1],an aggregate volume that fits three R5 units
same,"percent of the peptides outside the large self-assemblies, with Pi",[2],≈0.7 and ≈0.01% of the peptides remained outside the large self‐assemblies
same,"percent of the peptides outside the large self-assemblies, with Pi",[3],≈0.7 and ≈0.01% of the peptides remained outside the large self‐assemblies

# Reference: article PMC11321707
